The target in experiment [1] is Sumo-ELL2(519-640) (human) (UniProt O00472). The experiment is described as follows: fluorescence polarisation. A general note: In fluorescence polarisation assays a small probe gives low polarisation when free and higher when bound to something large.
Experiment [2] deals with ELL2^Occ–(Gly-Ser)4-AFF4^ELLBow fusion (UniProt Q9UHB7). The experiment is described as follows: SEC.
Experiment [3] addresses Sumo-ELL2(519-640) (human, UniProt O00472 519-640). The experiment in a line: fluorescence polarisation.
The target of experiment [4] is GST-ELL2 (519-640) N619A (human, UniProt O00472 519-640, N619A). The experiment in a line: pull-down.
Sequence of GST-ELL2 (519-640) N619A (O00472 519-640 N619A): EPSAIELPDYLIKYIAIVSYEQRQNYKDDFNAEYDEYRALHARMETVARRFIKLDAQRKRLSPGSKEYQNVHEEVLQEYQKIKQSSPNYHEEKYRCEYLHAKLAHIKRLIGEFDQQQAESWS
The target of experiment [5] is GST-ELL2 (519-640) H608E (human, UniProt O00472 519-640, H608E). The experiment in a line: pull-down.
Sequence of GST-ELL2 (519-640) H608E (O00472 519-640 H608E): as the sequence (O00472 519-640 N619A) above, with H90E, A101N counted along it
Experiment [6] addresses GST-ELL2 (519-640) K625T (human, UniProt O00472 519-640, K625T). The experiment is described as follows: pull-down.
Experiment [7] concerns the target GST-ELL2 (519-640) H559E (human, UniProt O00472 519-640, H559E). The experiment in a line: pull-down.

Residue numbers refer to the chain shown, from its start. Numbers in names are those of the source. No end group written: not given here. A value given as a limit tells only on which side of the number the result lay.

Sequence of Sumo-ELL2(519-640) (O00472 519-640): as the sequence (O00472 519-640 N619A) above, with A101N counted along it
Sequence of GST-ELL2 (519-640) H559E (O00472 519-640 H559E): as the sequence (O00472 519-640 N619A) above, with H41E, A101N counted along it
Sequence of Sumo-ELL2(519-640) (human) (O00472 519-640): as the sequence (O00472 519-640 N619A) above, with A101N counted along it
Sequence of GST-ELL2 (519-640) K625T (O00472 519-640 K625T): as the sequence (O00472 519-640 N619A) above, with A101N, K107T counted along it

In experiment [1], “AFF4^ELLBow α1 mutant D317P/E317P (301-351) (from UniProt Q9UHB7 301-351) (peptide)” yielded a fold reduction of affinity against wild type of 10 fold.

With “ELL2^Occ–(Gly-Ser)4-AFF4^ELLBow fusion (from UniProt Q9UHB7 301-351)”, the stoichiometry N – broadly, a count of units in the complex or per binding partner – in experiment [2] was found to be 2.

B1: His6-tagged wild-type AFF4^ELLBow (AFF4 301-351) (peptide)
chain: PSQPLDASASGDVSCVDEILKEMTHSWPPPLTAIHTPCKTEPSKFPFPTKE
On to B1, for which the dissociation constant (Kd) (in general, the constant that tells how readily two partners part at equilibrium) in experiment [3] is 86 nM. For the same molecule, the binding result in experiment [4], in experiment [5], in experiment [6] and in experiment [7] was “binds” throughout.

B2: AFF4^ELLBow I334D (301-351) (peptide)
chain: B1 chain with I34D
As for B2, the “fold reduction of affinity against wild type” value (shortened to “fold reduction of affinity”) in experiment [3] was determined as 8 fold.

B3: AFF4^ELLBow double 328-329 Pro-Gly mutant (301-351) (peptide)
chain: B1 chain with P28G, P29G
B3: in experiment [3], the “fold reduction of affinity” value was 3 fold.

B4: AFF4^ELLBow I319D/L320D (301-351) (peptide)
chain: B1 chain with I19D, L20D
B4: the “fold reduction of affinity” value in experiment [3] is above 25 fold.

B5: AFF4^ELLBow L331D (301-351) (peptide)
chain: B1 chain with L31D
Turning to B5, the “fold reduction of affinity” value in experiment [3] is around 20 fold.

B6: AFF4^ELLBow F345D/F347D (301-351) (peptide)
chain: B1 chain with F45D, F47D
Consider B6, for which the “fold reduction of affinity” value in experiment [3] was below 2 fold.

B7: AFF4^ELLBow E322H (301-351) (peptide)
chain: B1 chain with E22H
With B7, the “fold reduction of affinity” value in experiment [3] is below 2 fold.

B8: AFF4^ELLBow M323D (301-351) (peptide)
chain: B1 chain with M23D
Consider B8, for which the “fold reduction of affinity” value in experiment [3] was above 25 fold.

B9: AFF4^ELLBow I319D/L320D/M323D (301-351) (peptide)
chain: B1 chain with I19D, L20D, M23D
For B9, the equilibrium dissociation constant (Kd) in experiment [3] is above 3000 nM.

B10: AFF4^ELLBow W327D (301-351) (peptide)
chain: B1 chain with W27D
Consider B10, for which, in experiment [3], the “fold reduction of affinity” value amounted to 4 fold.

B11: AFF4^ELLBow P342D (301-351) (peptide)
chain: B1 chain with P42D
Regarding B11, in experiment [3], the “fold reduction of affinity” value is 3 fold.

Turning to EILKEMTHSWPPPLTAIHTPSTAEPSKFPFPTK (also: fluorescent label, site not given here) [fluorescently labeled AFF1 peptide (residues 358-390)], the binding result in experiment [3] is on record as “binds”.

The values above are taken from doi:10.1101/068262 (bioRxiv, 2016).
